To fix the notation:
B1: HDV Ribozyme (parent)
chain: GGCCGGCAUGGUCCCAGCCUCCUCGCUGGCGCCGGCUGGGCAACAUUCCGAGGGGACCGUCCCCUCGGUAAUGGCGAAUGGGACCCA

Variants of B1 are the subject of the data set. Description: self-cleavage, relative activity (ratio to wild type); higher = more cleavage; co-transcriptional.
For the variant G2U G54A, the self-cleavage came to 0.0279. In the case of G2U G54C it was 0.0157; in that of C3A C49U, 0.777; in that of C3A C49A, 0.554. On to C3A C49G, for which the self-cleavage came to 0.51. Under C3G G67A stands 0.682; under C3G G67C, 0.524; under C3A C44U, 0.145. As to C3G C49U, the self-cleavage stood at 0.673. In the case of C3G C49A, the self-cleavage turned out to be 0.736. As to C3G G82C, the self-cleavage stood at 0.0923. For the variant G2U G38U, the self-cleavage was 0.0126. Take G2U G38A: the self-cleavage was 0.032.

For the variant C3U A16C, the self-cleavage turned out to be 0.437. Under C3G C63A stands 0.575.

In the case of C3G C63G, the self-cleavage is 0.307. Regarding C3G C63U, the self-cleavage turned out to be 0.589. Take C3G G68A: the self-cleavage came out at 0.51. As for C3G C61G, the self-cleavage came out at 0.561. For the variant C3G G59U, the self-cleavage worked out at 0.899. In the case of C3G G59A it was 0.831; in that of G2U C86U, 0.095; in that of G2U C86A, 0.152. In the case of C3A G73U it was 0.111. As to C3G C75G, the self-cleavage worked out at 0.0496. Under C3U C7A stands 0.205.

For the variant C3U C7G, the self-cleavage was found to be 0.

C3A G5U: the self-cleavage was found to be 0.00831. For C3A G31U, the self-cleavage was found to be 0.0339. In the case of C3G C26G it was 0.753. Take C3G U27C: the self-cleavage is 0.133. For C3A C75U, the self-cleavage came out at 0.128. On to G2U U27A, for which the self-cleavage came to 0.0767. Take G2U U27C: the self-cleavage turned out to be 0.0198. With C3G G34U, the self-cleavage was found to be 0.323. With C3G G80U, the self-cleavage stood at 0.0801. In the case of G2U G34U it was 0.0369; in that of C3A C62G, 0.0773; in that of C3A C62U, 0.57. As for C3G C24A, the self-cleavage came out at 0. C3G C24U: the self-cleavage amounted to 0.196. Under C3G C24G stands 0.102; under C3A G53C, 0.635.

As for C3A G53U, the self-cleavage is 0.527. As to C3A C33U, the self-cleavage turned out to be 0.166. In the case of C3U C15U it was 0.562; in that of C3U C14A, 0.594; in that of C3A G39A, 0.067. Regarding C3A G35U, the self-cleavage is 1.14. Under C3A G35A stands 0.859; under C3A U60C, 0.499. Take C3A C58G: the self-cleavage was 0.606. For C3U A71U, the self-cleavage was 0.742. Consider C3U A71C, for which the self-cleavage was 0.427. Turning to C3G A87C, the self-cleavage worked out at 0.861. As to C3A A56G, the self-cleavage turned out to be 0.632. Consider C3A A83U, for which the self-cleavage is 0.0821.

Turning to C3A U12C, the self-cleavage came to 0.0615. Under C3A G25C stands 0.0198; under C3G G10A, 0.107. For C3G U47C, the self-cleavage came to 0.54.

For C3G U47G, the self-cleavage turned out to be 0.457. In the case of C3G U47A, the self-cleavage came to 0.594. Take C3A G67U: the self-cleavage was found to be 0.71. C3A G67C: the self-cleavage came out at 0.61. With C3A C86U, the self-cleavage stood at 0.745.

For C3A C86A, the self-cleavage is 0.535. Turning to C3A C86G, the self-cleavage is 0.745. On to C3G C30U, for which the self-cleavage came to 0.156. Consider G2U G52C, for which the self-cleavage came out at 0.0339. In the case of G2U G52A it was 0.0704; in that of C3A C85G, 0.623. On to G2U U72A, for which the self-cleavage was found to be 0.0287.

On to C3A C61U, for which the self-cleavage was 0.554. As for C3A C84G, the self-cleavage was 0.158. As to C3A C84A, the self-cleavage worked out at 0.391.

Regarding C3G G76U, the self-cleavage was 0.926. For the variant C3G G76C, the self-cleavage was 0.65. For the variant C3G G76A, the self-cleavage stood at 0.984.

Turning to C3G U72A, the self-cleavage was 0.237.

Consider C3G U72C, for which the self-cleavage was found to be 0.267.

Consider G2U G81A, for which the self-cleavage was 0.

Turning to G2U C75G, the self-cleavage worked out at 0.0256. On to C3A U23C, for which the self-cleavage was determined as 0.46. For G2U G59A, the self-cleavage was determined as 0.128. In the case of G2U G59U, the self-cleavage was 0.128.

C3U A77C: the self-cleavage is 0.0639.

In the case of C3A C57A, the self-cleavage stood at 0.659. With C3A C57G, the self-cleavage is 0.587. C3A A43G: the self-cleavage is 0.0821.

Turning to C3A A43C, the self-cleavage was 0.0504. As for C3A A43U, the self-cleavage turned out to be 0.191.

As to C3U A43U, the self-cleavage worked out at 0.496.

For the variant C3U A43C, the self-cleavage worked out at 0.293. For the variant C3U A43G, the self-cleavage amounted to 0.342. C3A G40A: the self-cleavage stood at 0.412. On to C3G G54A, for which the self-cleavage was found to be 0.683.

As for C3G G54C, the self-cleavage is 0.674. Take C3G G50A: the self-cleavage worked out at 0.589.

Regarding C3G U65G, the self-cleavage amounted to 0.751.

In the case of C3G U65A, the self-cleavage was determined as 0.648.

For the variant C3A C4G, the self-cleavage is 0.0225. In the case of C3G it was 0.753. Turning to C3U, the self-cleavage turned out to be 0.802. As to C3A, the self-cleavage turned out to be 0.641. Turning to C3G G39C, the self-cleavage is 0.157. C3G G39A: the self-cleavage was 0.0594.

Consider C3G U79C, for which the self-cleavage amounted to 0.182.

Consider C3G U79G, for which the self-cleavage came to 0.262. Under C3U A8U stands 0.656; under C3U A8G, 0.554; under G2U U9G, 0.101. For G2U U9C, the self-cleavage came to 0.104.

As for G2U U47A, the self-cleavage amounted to 0. As to G2U U47G, the self-cleavage stood at 0.119. Under G2U U47C stands 0; under C3G A71C, 0.261; under C3G C44G, 0.0707. As for C3G C85U, the self-cleavage is 0.751. Under C3G C85A stands 0.858. Consider C3G U46C, for which the self-cleavage came to 0.373. As to C3G U46A, the self-cleavage came out at 0.253. Turning to C3A G81C, the self-cleavage worked out at 0.0158. Take C3A G81A: the self-cleavage came out at 0.054.

As to C3G G73U, the self-cleavage is 0.0583. As to C3G G73A, the self-cleavage came to 0.211. With C3A G11A, the self-cleavage was determined as 0.236.

C3A G11C: the self-cleavage came out at 0.0963. Take G2U G82A: the self-cleavage is 0.0189.

With C3G A83C, the self-cleavage is 0.191. As to G2U G25A, the self-cleavage came out at 0.0391. In the case of G2U G25C, the self-cleavage was determined as 0.0244.

G2U G74C: the self-cleavage was determined as 0. Under C3A C14U stands 0.697; under C3A C14A, 0.313; under C3A G54A, 0.369.

On to G2U G73C, for which the self-cleavage was 0. As to C3A G34C, the self-cleavage was determined as 0.0903. For C3A G34U, the self-cleavage worked out at 0.109.

For C3U C18A, the self-cleavage is 0.0782. As for C3U C18U, the self-cleavage worked out at 0.43. Regarding C3A G17U, the self-cleavage is 0.0665.

C3A G17A: the self-cleavage was 0.104. For the variant C3A G6U, the self-cleavage was 0.0492.

Consider G2U G17U, for which the self-cleavage came out at 0.0366. Under G2U G17A stands 0. For C3G G40A, the self-cleavage is 0.575. Consider C3G G40C, for which the self-cleavage came to 0.339. In the case of C3G C62A it was 0.789; in that of C3G C62G, 0.169; in that of C3G C41G, 0.241.

As to C3G G38U, the self-cleavage came out at 0.166. As to G2U C85U, the self-cleavage turned out to be 0. In the case of C3A C15G it was 0.237. Under C3A C15A stands 0.306. As for C3A A42G, the self-cleavage came out at 0.0615. C3A U37G: the self-cleavage turned out to be 0.0685. For the variant C3A U37C, the self-cleavage amounted to 0.661. Under C3G C15U stands 0.532; under C3A C32U, 0.119. For the variant C3A A51G, the self-cleavage was 0.444. C3G U69A: the self-cleavage amounted to 0.582. As to C3G G31A, the self-cleavage turned out to be 0.0608.

On to C3G G31C, for which the self-cleavage turned out to be 0.0455. In the case of G2U U20G it was 0.0256; in that of C3U C4U, 0.655; in that of C3U C4G, 0.

For the origin of these results see the RNAGym collection of RNA variant scans (doi:10.7554/elife.80360).
